Here are results for 13 molecules from patent US20060257938A1, “Method of screening for drugs that block ligand binding to a lipid binding protein” (priority 2005, published 2006).

Common to all, as to type: binding
Assay [1] is described as follows: Probe fluorescence ratio response to linolenic acid relative to ADIFAB2. To be noted: response relative to ADIFAB2. In short, it runs like this: (§1)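 Each fatty acid's response was expressed relative to ADIFAB2, the rI-FABP-L72A probe, as ΔR/ΔRreference. ΔR is the change in the background-corrected two-wavelength intensity ratio R=Fλ1/Fλ2 from its analyte-free baseline R0. Emission was read near about 420-480 nm for unbound and about 495-580 nm for FFA-bound probe.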

Assay [2] can be described thus: Probe fluorescence ratio response to arachidonic acid relative to ADIFAB2. To be noted: arachidonic acid; response relative to ADIFAB2. In short, it runs like this:
as §1

Assay [3] in a line: Probe fluorescence ratio response to stearic acid relative to ADIFAB2. Conditions: response relative to ADIFAB2. In short, it runs like this:
as §1

Assay [4] can be described thus: Probe fluorescence ratio response to palmitic acid relative to ADIFAB2. To be noted: response relative to ADIFAB2. The method in brief: as §1
Assay [5] in a line: Probe fluorescence ratio response to linoleic acid relative to ADIFAB2. To be noted: response relative to ADIFAB2. The method in brief: as §1
Assay [6] in a line: Probe fluorescence ratio response to palmitoleic acid relative to ADIFAB2. Conditions: response relative to ADIFAB2. The method in brief:
as §1

Assay [7] in a line: Probe fluorescence ratio response to oleic acid relative to ADIFAB2. Conditions: response relative to ADIFAB2. The method in brief: as §1

B1: 14L 18L 31L 73G 117V 72A (protein, listed as Rattus norvegicus)
chain: AFDGTWKVDRNENLEKFLEKMGINVVKRKLLAHDNLKLTITQEGNKFTVKESSNFRNIDVVFELGVDFAYSAGDGTELTGTWTMEGNKLVGKFKRVDNGKELIAVREISGNELIQTVTYEGVEAKRIFKKE
modifications: PEPTIDE (1)...(131) wild-type rat intestinal fatty acid binding protein
On to B1, for which, in assay [1], the “DR/DR LNA” value was determined as 1.139. The “DR/DR AA” value in assay [2] stood at 1.180. In addition, the “DR/DR SA” value in assay [3] came to 0.170. Also, in assay [4], the “DR/DR PA” value came to 0.377. Also, in assay [5], the “DR/DR LA” value is recorded as 1.170. For the same molecule, the “DR/DR POA” value in assay [6] was 0.180. For the same molecule, the “DR/DR OA” value in assay [7] was 0.031.

B2: 72H 73Y 74G (protein, listed as Rattus norvegicus)
chain: AFDGTWKVDRNENYEKFMEKMGINVVKRKLGAHDNLKLTITQEGNKFTVKESSNFRNIDVVFELGVDFAYSHYGGTELTGTWTMEGNKLVGKFKRVDNGKELIAVREISGNELIQTYTYEGVEAKRIFKKE
modifications: PEPTIDE (1)...(131) wild-type rat intestinal fatty acid binding protein
On to B2, for which the “DR/DR LNA” value in assay [1] was determined as 0.591. The “DR/DR AA” value in assay [2] is listed as 0.600. For the same molecule, in assay [3], the “DR/DR SA” value turned out to be 0.052. In addition, the “DR/DR PA” value in assay [4] is 0.486. Moreover, the “DR/DR LA” value in assay [5] is listed as 0.472. Also, the “DR/DR POA” value in assay [6] was 0.986. Further, the “DR/DR OA” value in assay [7] is reported as 0.140.

B3: 18I 31L 73L 72A (protein, listed as Rattus norvegicus)
chain: AFDGTWKVDRNENYEKFIEKMGINVVKRKLLAHDNLKLTITQEGNKFTVKESSNFRNIDVVFELGVDFAYSALDGTELTGTWTMEGNKLVGKFKRVDNGKELIAVREISGNELIQTYTYEGVEAKRIFKKE
modifications: PEPTIDE (1)...(131) wild-type rat intestinal fatty acid binding protein
Take B3: in assay [1], the “DR/DR LNA” value is on record as 0.857. In addition, the “DR/DR AA” value in assay [2] came out at 0.626. Further, in assay [3], the “DR/DR SA” value is on record as 0.390. Also, the “DR/DR PA” value in assay [4] is listed as 1.075. In addition, in assay [5], the “DR/DR LA” value came out at 0.682. The “DR/DR POA” value in assay [6] is 0.781. Further, in assay [7], the “DR/DR OA” value is given as 0.549.

B4: 72T 73Q 74S (protein, listed as Rattus norvegicus)
chain: AFDGTWKVDRNENYEKFMEKMGINVVKRKLGAHDNLKLTITQEGNKFTVKESSNFRNIDVVFELGVDFAYSTQSGTELTGTWTMEGNKLVGKFKRVDNGKELIAVREISGNELIQTYTYEGVEAKRIFKKE
modifications: PEPTIDE (1)...(131) wild-type rat intestinal fatty acid binding protein
Regarding B4, the “DR/DR LNA” value in assay [1] is 2.419. For the same molecule, the “DR/DR AA” value in assay [2] is on record as 2.166. In addition, the “DR/DR SA” value in assay [3] was found to be 1.792. Further, the “DR/DR PA” value in assay [4] is recorded as 2.646. In assay [5], the “DR/DR LA” value turned out to be 2.713. Besides, in assay [6], the “DR/DR POA” value came to 3.110. For the same molecule, the “DR/DR OA” value in assay [7] was found to be 2.676.

B5: 38V 62V 117A 72A (protein, listed as Rattus norvegicus)
chain: AFDGTWKVDRNENYEKFMEKMGINVVKRKLGAHDNLKVTITQEGNKFTVKESSNFRNIDVVVELGVDFAYSAADGTELTGTWTMEGNKLVGKFKRVDNGKELIAVREISGNELIQTATYEGVEAKRIFKKE
modifications: PEPTIDE (1)...(131) wild-type rat intestinal fatty acid binding protein
B5: the “DR/DR LNA” value in assay [1] was determined as 1.153. In addition, in assay [2], the “DR/DR AA” value turned out to be 0.984. For the same molecule, the “DR/DR SA” value in assay [3] was determined as 0.495. In addition, the “DR/DR PA” value in assay [4] is listed as 0.478. In addition, the “DR/DR LA” value in assay [5] is recorded as 1.002. For the same molecule, the “DR/DR POA” value in assay [6] came to 0.668. Also, the “DR/DR OA” value in assay [7] was found to be 1.668.

B6: 62N 106F 117A 72A (protein, listed as Rattus norvegicus)
chain: AFDGTWKVDRNENYEKFMEKMGINVVKRKLGAHDNLKLTITQEGNKFTVKESSNFRNIDVVNELGVDFAYSAADGTELTGTWTMEGNKLVGKFKRVDNGKELIAVFEISGNELIQTATYEGVEAKRIFKKE
modifications: PEPTIDE (1)...(131) wild-type rat intestinal fatty acid binding protein
Turning to B6, in assay [1], the “DR/DR LNA” value came to 0.756. Further, the “DR/DR AA” value in assay [2] stood at 1.265. In addition, in assay [3], the “DR/DR SA” value worked out at 0.490. The “DR/DR PA” value in assay [4] stood at 0.430. For the same molecule, in assay [5], the “DR/DR LA” value is reported as 0.985. Also, the “DR/DR POA” value in assay [6] turned out to be 0.341. The “DR/DR OA” value in assay [7] was found to be 0.864.

B7: 14L 18I 31L 73F 117A 72A (protein, listed as Rattus norvegicus)
chain: AFDGTWKVDRNENLEKFIEKMGINVVKRKLLAHDNLKLTITQEGNKFTVKESSNFRNIDVVFELGVDFAYSAFDGTELTGTWTMEGNKLVGKFKRVDNGKELIAVREISGNELIQTATYEGVEAKRIFKKE
modifications: PEPTIDE (1)...(131) wild-type rat intestinal fatty acid binding protein
In the case of B7, the “DR/DR LNA” value in assay [1] was found to be 0.639. Also, the “DR/DR AA” value in assay [2] is listed as 1.297. Also, the “DR/DR SA” value in assay [3] turned out to be 0.077. Further, the “DR/DR PA” value in assay [4] is listed as 0.121. Besides, the “DR/DR LA” value in assay [5] came out at 0.707. Moreover, in assay [6], the “DR/DR POA” value worked out at 0.235. Further, the “DR/DR OA” value in assay [7] turned out to be 0.300.

B8: 18G 31W 73V 72A (protein, listed as Rattus norvegicus)
chain: AFDGTWKVDRNENYEKFGEKMGINVVKRKLWAHDNLKLTITQEGNKFTVKESSNFRNIDVVFELGVDFAYSAVDGTELTGTWTMEGNKLVGKFKRVDNGKELIAVREISGNELIQTYTYEGVEAKRIFKKE
modifications: PEPTIDE (1)...(131) wild-type rat intestinal fatty acid binding protein
B8: the “DR/DR LNA” value in assay [1] worked out at 0.705. Besides, in assay [2], the “DR/DR AA” value worked out at 0.774. Besides, the “DR/DR SA” value in assay [3] is on record as 0.489. For the same molecule, the “DR/DR PA” value in assay [4] worked out at 0.463. For the same molecule, the “DR/DR LA” value in assay [5] is given as 0.855. Moreover, the “DR/DR POA” value in assay [6] worked out at 0.770. The “DR/DR OA” value in assay [7] was determined as 0.942.

B9: 14L 18S 31L 73V 117A 72A (protein, listed as Rattus norvegicus)
chain: AFDGTWKVDRNENLEKFSEKMGINVVKRKLLAHDNLKLTITQEGNKFTVKESSNFRNIDVVFELGVDFAYSAVDGTELTGTWTMEGNKLVGKFKRVDNGKELIAVREISGNELIQTATYEGVEAKRIFKKE
modifications: PEPTIDE (1)...(131) wild-type rat intestinal fatty acid binding protein
As to B9, in assay [1], the “DR/DR LNA” value came out at 0.673. The “DR/DR AA” value in assay [2] worked out at 0.951. The “DR/DR SA” value in assay [3] worked out at 0.007. The “DR/DR PA” value in assay [4] amounted to 0.028. In addition, the “DR/DR LA” value in assay [5] amounted to 0.534. Further, the “DR/DR POA” value in assay [6] is −0.003. Moreover, the “DR/DR OA” value in assay [7] is listed as 0.020.

B10: 72G 74F (protein, listed as Rattus norvegicus)
chain: AFDGTWKVDRNENYEKFMEKMGINVVKRKLGAHDNLKLTITQEGNKFTVKESSNFRNIDVVFELGVDFAYSGAFGTELTGTWTMEGNKLVGKFKRVDNGKELIAVREISGNELIQTYTYEGVEAKRIFKKE
modifications: PEPTIDE (1)...(131) wild-type rat intestinal fatty acid binding protein
Turning to B10, the “DR/DR LNA” value in assay [1] turned out to be 1.970. Also, in assay [2], the “DR/DR AA” value is recorded as 1.669. Further, the “DR/DR SA” value in assay [3] was 0.669. Also, the “DR/DR PA” value in assay [4] came to 2.304. Further, the “DR/DR LA” value in assay [5] was determined as 2.116. For the same molecule, the “DR/DR POA” value in assay [6] stood at 2.996. The “DR/DR OA” value in assay [7] stood at 1.490.

B11: 14L 18L 73L 117A 72A (protein, listed as Rattus norvegicus)
chain: AFDGTWKVDRNENLEKFLEKMGINVVKRKLGAHDNLKLTITQEGNKFTVKESSNFRNIDVVFELGVDFAYSALDGTELTGTWTMEGNKLVGKFKRVDNGKELIAVREISGNELIQTATYEGVEAKRIFKKE
modifications: PEPTIDE (1)...(131) wild-type rat intestinal fatty acid binding protein
As to B11, the “DR/DR LNA” value in assay [1] is 0.641. Moreover, in assay [2], the “DR/DR AA” value is given as 0.905. Also, the “DR/DR SA” value in assay [3] amounted to 0.031. The “DR/DR PA” value in assay [4] is listed as 0.071. Further, in assay [5], the “DR/DR LA” value is listed as 0.657. Further, in assay [6], the “DR/DR POA” value turned out to be 0.410. Besides, the “DR/DR OA” value in assay [7] is given as 0.355.

B12: 73N 72A 74F (protein, listed as Rattus norvegicus)
chain: AFDGTWKVDRNENYEKFMEKMGINVVKRKLGAHDNLKLTITQEGNKFTVKESSNFRNIDVVFELGVDFAYSANFGTELTGTWTMEGNKLVGKFKRVDNGKELIAVREISGNELIQTYTYEGVEAKRIFKKE
modifications: PEPTIDE (1)...(131) wild-type rat intestinal fatty acid binding protein
For the molecule B12, the “DR/DR LNA” value in assay [1] came out at 1.299. In assay [2], the “DR/DR AA” value came to 0.870. Further, the “DR/DR SA” value in assay [3] was found to be 0.271. For the same molecule, in assay [4], the “DR/DR PA” value is listed as 1.468. The “DR/DR LA” value in assay [5] worked out at 0.976. In addition, the “DR/DR POA” value in assay [6] is on record as 2.256. In addition, the “DR/DR OA” value in assay [7] is 0.775.

B13: 14L 18T 31E 73G 117G 72A (protein, listed as Rattus norvegicus)
chain: AFDGTWKVDRNENLEKFTEKMGINVVKRKLEAHDNLKLTITQEGNKFTVKESSNFRNIDVVFELGVDFAYSAGDGTELTGTWTMEGNKLVGKFKRVDNGKELIAVREISGNELIQTGTYEGVEAKRIFKKE
modifications: PEPTIDE (1)...(131) wild-type rat intestinal fatty acid binding protein
For B13, in assay [1], the “DR/DR LNA” value stood at 1.133. Besides, in assay [2], the “DR/DR AA” value worked out at 1.236. Besides, the “DR/DR SA” value in assay [3] is 0.413. In addition, the “DR/DR PA” value in assay [4] turned out to be 0.712. For the same molecule, the “DR/DR LA” value in assay [5] was found to be 1.107. In addition, in assay [6], the “DR/DR POA” value is reported as 1.072. The “DR/DR OA” value in assay [7] was found to be 1.096.
